Tests used:
[1] = tested on: human PBMC (resistin mRNA); assay: Stimulation of human PBMC with pro-inflammatory cytokines: resistin mRNA; assay type: cell-based; details: human PBMC (n=5), physiological concentrations (TNF-alpha 1-5 ng/ml)
Protocol: (§1) Peripheral blood mononuclear cells (PBMC) were prepared from heparinized blood of healthy individuals by separation on a Lymphoprep density gradient, washed, and resuspended in complete medium (Iscoves medium containing 1% L-glutamine, 5×10^−5 M ®-mercapto ethanol, […] of gentamycin sulphate, and 10% heat inactivated fetal calf serum). Culturing of PBMC was carried out in 24-well plates in a humidified atmosphere of 5% CO2 at 37° C. Culturing of monocytic cell line THP-1 (American Type Culture Collection, Manassas, Va.) was performed in 10-ml culture flasks (Nunclon) in […] medium supplemented with 10% FCS, 1% sodium pyruvate, gentamycin, and 2.5% Hepes in a humidified atmosphere of 5% CO2 at 37° C. For the experiments, 4-days old cells were harvested, washed, and adjusted to 1×10^6 cells/ml.
(§2) Total RNA from harvested cells was extracted by an RNAeasy kit (Qiagen, Inc.) and concentration was assessed spectrophotometrically at 260 nm. The gene expression was measured with TaqMan real time PCR (Applied Biosystems, Foster City, Calif.) as previously described (N&S, 2001). In short, total RNA extracts were treated with deoxyribonuclease I, and reverse transcribed with random nonamer primers and superscript II RnaseH-reverse transcriptase (life Technologies). After first strand cDNA synthesis, relative transcript cDNA levels were measured using oligonucleotide PCR primers and fluorogenic Taqman probes for test genes and 18S rRNA. […] For generation of the standard curve, serially diluted cDNA prepared from PBMC were used. Each TaqMan set span one or two exon joints in order to increase further both specificity of only RNA detection and efficiency of PCR reaction. Sequences were manually designed with using the PrimerExpress program (Applied Biosystems) to check them for secondary structure, melting temperature, GC content, primer to primer and/or to probe dimmers. The GenBank database was useful to avoid all known sites of oligonucleotide polymorphism and unspecific annealing of any nucleotide.

[2] = tested on: THP-1 cells; assay: Stimulation of monocytic cell line THP-1; assay type: cell-based, human
Protocol: as §1

[3] = tested on: human PBMC; assay: Resistin stimulation of PBMC: cytokine gene expression and cytokine release; assay type: cell-based
Protocol: as §1
Freshly isolated PBMC were re-suspended to 2×10^6/ml and stimulated with recombinant human resistin (endotoxin concentration less than 0.1 ng/μg, PeproTech) at final concentration 10-1000 ng/ml. LPS (10 ng/ml) was used as a positive control in all the experiments. […] Cell stimulation period differed depending on the read-out system used. […]
Total RNA from harvested cells was extracted by an RNAeasy kit (Qiagen, Inc.) and concentration was assessed spectrophotometrically at 260 nm. The gene expression was measured with TaqMan real time PCR (Applied Biosystems, Foster City, Calif.) as previously described (N&S, 2001). […] After first strand cDNA synthesis, relative transcript cDNA levels were measured using oligonucleotide PCR primers and fluorogenic Taqman probes for test genes and 18S rRNA. […]
The level of IL-6 in synovial fluid and supernatants was determined by a bioassay. The effect of test samples on proliferation of the IL-6 dependent cell line B13.29 [21] was assessed following 72 h of culturing. The results were analyzed by incorporation of [3H]-thymidine (Radiochemical Centre, Amersham, Bucks, U.K.) during the last 4 h of incubation at 37° C. […]
Levels of TNF-α and IL-1B were assessed using an ELISA kit (R&D Systems) following manufacture's recommendations. […]

[4] = tested on: synovial cells; assay: In vitro stimulation of synovial cells from patients with acute synovitis; assay type: cell-based, human; details: synovial cells from patients with acute synovitis (n=4)
Protocol: as §2

[5] = tested on: NF-kappaB; assay: Electrophoretic mobility shift assay of nuclear extracts of resistin-stimulated PBMC; assay type: cell-based, human; details: PBMC stimulated with resistin
Protocol: Human PBMC (10^7) were stimulated with recombinant resistin (10-500 ng/ml) as described above. After 2 h, the stimulation was stopped with ice-cold PBS, cells were washed and resuspended in 2 ml hypotonic buffer (pH 7.9, containing 10 mM HEPES, 0.1 mM EDTA, 0.1 mM EGTA, 10 mM KCl, 0.75 mM spermidin, 0.15 mM spermin, […] and proteinase inhibitors, Complete MiniTab, Boehringer) and homogenised. Following centrifugation at 14000 g at 4° C. for 10 min, the supernatant was removed and the pellet was resuspended in the ice-cold extraction buffer (pH 7.9, 20 mM HEPES, 0.42 M NaCl, […], 1 mM EGTA, 25% glycerol, […] and proteinase inhibitors). Extraction proceeded at 4° C. under continuous rotation for 1 h. The supernatants containing nuclear extracts were collected after centrifugation 14000 g for 1 h at 4° C. Protein concentration in the extracts was determined using Bradford reagent (Sigma). Nuclear extracts were aliquoted and stored at −70° C. until use.
EMSA was performed as described elsewhere (Bergquist et al., 2000) with minor modifications. The sequences for oligonucleotides used for the assay were as follows:
Oligonucleotides were annealed at 56° C. The double stranded product was purified by elution from the electrophoretic gel. […]

[6] = tested on: knee joint of healthy mice; assay: Intra-articular injection of recombinant mouse resistin into knee joint, histology; assay type: in vivo
Protocol: Female NMRI mice, 6-8 weeks old, weighing 25-30 g, were purchased from ALAB (Stockholm, Sweden). The mice were bred and housed in the animal facility of the Department of Rheumatology, University of Göteborg, under standard conditions of temperature and light, and fed laboratory chow and water ad libidum. Mouse recombinant resistin (PeproTech EC, London, U.K.) was injected intra-particularly into the right knee joint (0.1-100 ng/knee) in the total volume of 20 μl. Control mice obtained equivalent volume of mouse albumin (Sigma, St. Louise, Mo.) in PBS buffer. Three days after the joint injection, the mice were sacrificed by cervical dislocation and the right knee was removed for histological examination.
Histological examination of joints was done after routine fixation, decalcification, and paraffin embedding of the tissue. Tissue sections of the knee joints were cut and stained with hematoxylin and eosin. All the slides were coded and evaluated blindly by two investigators with respect to synovial hypertrophy, the inflammatory cell infiltration of synovia, pannus formation, and cartilage and subchondral bone destruction. Synovial hypertrophy was defined as synovial membrane thickness of more than two cell layers. Intensity of in-flammatory cell infiltration of synovia was graded arbitrarily from 0 to 3.

IL-1b: pro-inflammatory cytokine used to stimulate PBMC
induction of resistin mRNA [1]: less efficient

IL-6: pro-inflammatory cytokine used to stimulate PBMC
induction of resistin mRNA [1]: less efficient

TNF-alpha
induction of resistin mRNA [1]: could induce the expression of resistin | expression of resistin gene ([2]; THP-1 cells): neither stimulation with TNF-a nor with LPS gave rise to the expression of resistin gene

B1: recombinant human resistin: recombinant human resistin (endotoxin concentration less than 0.1 ng/μg, PeproTech) (protein, UniProt Q9HD89 19-108, looked up)
Resistin: KTLCSMEEAINERIQEVAGSLIFRAISSIGLECQSVTSRGDLATCPRGFAVTGCTCGSACGSWDVRAETTCHCQCAGMDWTGARCCRVQP
IL-6 activity and levels of TNF-alpha and IL-1b in supernatants ([3]; PBMC, 48 hours of stimulation): dose dependent increase | cytokine gene expression (TNF-alpha, IL-6, IL-1b) in cell lysates ([3]; PBMC, resistin 10-1000 ng/ml): induction of genes for pro-inflammatory cytokines | resistin gene expression in PBMC ([3]; resistin stimulation, detectable following 3 h up to 24 h): self-stimulation of resistin gene | expression of TNF-alpha and IL-6 genes [4]: increased expression of TNF-alpha and IL-6 genes | NF-kappaB translocation (EMSA) [5]: induced translocation of NF-kappaB from cytoplasma to nucleus | cytokine production ([2]; THP-1 stimulated with resistin): cytokine production in the pattern similar to PBMC

B2: recombinant mouse resistin: Mouse recombinant resistin (PeproTech EC, London, U.K.) (protein, UniProt Q99P87 21-114, looked up)
Resistin: SSMPLCPIDEAIDKKIKQDFNSLFPNAIKNIGLNCWTVSSRGKLASCPEGTAVLSCSCGSACGSWDIREEKVCHCQCARIDWTAARCCKLQVAS
histological analysis of injected joints ([6]; 0.1-100 ng/knee intra-articularly, three days after injection): signs of inflammation in the joint | leukocyte infiltration and hyperplasia of synovia ([6]; single intra-articular injection, 1 ng/knee (50 ng/ml)): sufficient to induce leukocyte infiltration and hyperplasia of synovia

From patent US20080039411A1, “Use Of Resistin Antisense Oligonucleotides And/Or Sirna Molecules In The Treatment Of Rheumatoid Arthritis” (priority 2004, published 2008)
